Results: patent US20060088531A1 (CAMBRIDGE ENTERPRISE, published 2006)

Experiments:
hD1-CaM = biological target: T1, hD1-CaM (human, UniProt Q9HCN6 21-109; P0DP23 2-149, limits assumed); assay: screening ELISA
T1 construct: Residues counted on mature GPVI; also called isolated hD1

hD1D2-CaM [1] = biological target: T2, hD1D2-CaM (human, UniProt Q9HCN6 21-205; P0DP23 2-149, limits assumed); assay: resonant mirror biosensor, Cell 1
T2 construct: Residues are counted on mature GPVI, not on the precursor; also called rGPVI; recombinant GPVI
Procedure: Here, BSA-N9A was covalently immobilised to a carboxymethyldextran surface using the manufacturer's instructions. The machine was then primed with TBS-TCa. A stirring speed of 100, cuvette temperature of 25° C. and reaction volume per cell of 50 μl were used in all experiments unless otherwise indicated. […] Several washes with TBS-TCa were made to remove unbound material from the cell. Then typically the wells were filled with 45 μl buffer to which was added further volumes of purified scFv (e.g. 5 μl) in HBS. The binding of scFv was measured in arc.sec⁻¹. The binding curves were analysed either by recording response at equilibrium versus time (for epitope mapping studies) or by calculating the initial rates of binding at different scFv concentrations using FastFit software (for affinity measurements).
Each scFv was then allowed to bind to saturation.

hD1D2-CaM [2] = biological target: T2, hD1D2-CaM; assay: resonant mirror biosensor, from response ratio against ratio of molecular masses
Procedure: Binding studies and affinity measurements were conducted using a resonant mirror biosensor (Iasys, Thermolabsystems, Cambridge, UK). Using this system, one protein (the ligand) was immobilised to the mirrored surface of the cell of a cuvette. The cell contains a stirred volume of buffer to which aliquots of a second protein (the ligate) are then added. If the ligate binds or dissociates from the immobilised ligand, these changes are detected optically and give a reading in arc.sec−1 in real time. […] Here, BSA-N9A was covalently immobilised to a carboxymethyldextran surface using the manufacturer's instructions. The machine was then primed with TBS-TCa. A stirring speed of 100, cuvette temperature of 25° C. and reaction volume per cell of 50 μl were used in all experiments unless otherwise indicated. […] Several washes with TBS-TCa were made to remove unbound material from the cell. Then typically the wells were filled with 45 μl buffer to which was added further volumes of purified scFv (e.g. 5 μl) in HBS. The binding of scFv was measured in arc.sec⁻¹. The binding curves were analysed either by recording response at equilibrium versus time (for epitope mapping studies) or by calculating the initial rates of binding at different scFv concentrations using FastFit software (for affinity measurements).
ScFvs were added sequentially to saturation, without washing. […]

mD1D2-CaM = biological target: T3, mD1D2-CaM (murine, UniProt P0C191 22-206; P0DP23 2-149, limits assumed); assay: capture ELISA, purified scFv
T3 construct: Residues counted from Q1 (mature protein); also called murine D1D2; mouse D1D2-CaM

Binder	binding result (hD1-CaM)	ratio of responses 1C3: D1D2-CaM (hD1D2-CaM [1])	binding ratio (scFv to hD1D2) (hD1D2-CaM [2])	ratio of responses 10B12: D1D2-CaM (hD1D2-CaM [1])	binding result (mD1D2-CaM)
scFv 1C3 (scFv, V domains shown, Human scFv from the Marks library; also called 1C3 scFv) VH: QVQLQQSGAEVKKPGESLKISCQASGYSFSSYWIAWVRQMPGKGLELMGIIYPGDSDARYSPSFQGQVTFSADKSINTAYLQWSSLKASDTAMYYCARQGKTGSYYFGAFDVWGQGTMVTVSS VL: QSVLTQPPSMSAAPGQKVTISCTGTSSDVGGYNYVSWYQQHPGKAPKLMLFEVSHRPSGVSNRFSGSKSDNTASLTISGLQAEDEADYYCSSYTGSSTWVFGGGTKVTVL	no binding	0.63	1		
scFv 10B12 (scFv, V domains shown, Human scFv from the CaT (Vaughan) library; also called 10B12 scFv) VH: EVQLVQSGGGVVQPGGSLRLSCAASGFTFSSYGMHWVRQAPGKGLEWVAFIRYDGSNKYYADSVKGRFTISRDNSKNTLYLQMNSLRAEDTAVYYCTDGWAEMATTDDAFDIWGRGTMVTV VL: DIQMTQSPSTLSASIGDRVTITCRASEGIYHWLAWYQQKPGKAPKLLIYKASSLASGAPSRFSGSGSGTDFTLTISSLQPDDFATYYCQQYSNYPLTFGGGTKLEIK			1	0.61	no binding (tested: 10 µg/ml)
